The nanobody polyreactivity screen of Harvey et al. (2022)

Experiment: yeast display, Sf9 membrane polyspecificity reagent, FACS + sequencing; frameworks hold sequencing errors
In short: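 After 36–48 hours of galactose induction, yeast (Saccharomyces cerevisiae BJ5465) displaying a synthetic nanobody library were stained at 4 °C for 1 hour with 10% biotinylated, detergent-solubilized Sf9 membrane reagent. Streptavidin microbeads enriched the stained cells before FACS sorting into low and high (top ~1%) gates on anti-HA and streptavidin fluorescence. Each clone's polyreactivity label reflects its gate of origin.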

| Sequence | polyreactivity (PSR sort gate) |
| --- | --- |
| QVQLVESGGGLVQAGGSLRLSCAASGYTFRRYAMGWYRQAPGKERELVAAITSRGGSTYYADSVKGRFTISRDNAKNTVYLQMNSLKPEDTAVYYCAADASAYSVLTRDYWGQGTQVTVSS | high polyreactivity |
| QVQLVESCGGLVQAGGSLRLSCAASGFNIYRNAMGWYRKAPGKERELVAAISTSVGSTHYADSVKGRFTISRDNAMNTVYLQMYSLKPEDTAVYYCAKRRSIRDEFGYWGQGTQVTVSS | high polyreactivity |
| QVQLVESGGGLVQAGGSLRLSCAASGRIFSYNAMGFYRQAPGKERELVAGITYGSTYYADSVKGRFTISRDNAKNTVYLQMNSLKPEDTAVYYCAADLSYTSVHGYRSDTLMDYWGQGTQVTVSS | low polyreactivity |
| QVQLVESGGGLVQAGGSLRLSCAASGSIFGYYTMGWYRQAPGKEREFVAAISWSGGSTYYADSVKGRFTISRDNAKNTVYLQMTSLKPEDTAVYYCNADVYWEYDYWGQGTQVTVSS | low polyreactivity |
| QVQLVESVGGLVQAGGSLRLSSDASGRTFYSNAMGWYREAPGKERELVAGMNIGGGSTYYADSVKGRFTISRDNAKNTVYLQMYSLIPEATAVYYCAALRWGAYRHGYWGQGTQVTVSW | high polyreactivity |
| PVQLVESGGVLVQAGGSLRVSCAASGSILLIYSMGWSIQAPGKERELVAGINWSGSRAYYADSVKGRFTISRDNAQNTVYLQMNSLKPEDTAVYYCAARGRRPLYSAYDSWGQGTQVTVSS | low polyreactivity |
| QVQLVESGGCLVQAGGSLRLSCAASGFTFSDNSMGWYRQAHGKERELVATISQSSGSTSYADSLKGRFTISRDNAKNTVYLQMNSLKPEDTAVYYCAKRRLFYWGLGTQVTVSS | low polyreactivity |
| QVQLVESGGGLVQAGGSLRLSCAASGRIFGWYAMGWYRQAPGKERELVAAITSSVGRTYYADSVKGRFTISRDNAKNTVYLQMNSLKPEDTAVYYCAKDLYTYYYFEYDYWGQGTQVTVSS | low polyreactivity |
| QVQLVESGGGLVQAGGSLRLSCAASGRIFGQNAMGWYRQAPGKERELVAAITGSGGRTYYADSVKGRFTISRDNAKNTVYLQMNSLKPEYTAVYYCAVSVTSYYRTMDYWGQGTQVTVSS | low polyreactivity |
| QVHLVESGGGLVQAGGSLRLSCAASGGTFLVNAMGWYRQAPGKERELVAAINWSGGGTTYADSVKGRFTISRDNAKNTVYLQMNSLKPEDTAVYYCATGSYTTYGYGYWGQGTQVTVSS | high polyreactivity |
| QVQLVESGGGLVQAGGSLRLSCAASGLPSKLMHMGWYRQAPGKERELVAAISSSGGRTYYADSVKGRITISRDNAKNTVYLQMNILKPEDTAVYYCAATARYRSYSASYYWGQGTQVTVSS | high polyreactivity |
| QVQLVESGGGLVQAGGSLRLSCAASGRTFSDYAMGWYRQAPAKERELVAAISKSGGRTYYADSVKGRFTISRDNAKNTVYLQMNSLKPEDTAVYYCAADPLTELAFYSWGQGTQVTVSS | high polyreactivity |
| QVQLVESGGGLVQAGGSLRLSCAASGSTFERYAMGWYRQEPGKEREFVAAISAIGDSTYYADSVKGRFTITRDNAKNTVYLQMNILKPEDTAVYYCAARYTPYHIGRGYYYWGQGTQVTVSS | high polyreactivity |
| QVQLVESGGGLVQAGGSLRLSCADSGFIFGYYAMGWYRQAPGKERELVAAINKNGGSTYYADSVKGRFTISRDNAKNTVYLQMNSLKPEDTAVYYCAARARGYAWTFDYWGQGTQVTVSS | high polyreactivity |
| QVQLVESGGGLVQAGGSLRLSCAASGNTFTKYAMGWYIQAPGKERELVAGITRGGSTNYADSVKGRFTISRDNAKNTVYLQMNSLKPEDTAVYYCNARPVYGSRFYSAVRMEYWGQGTPVTVSS | low polyreactivity |
| QVQLVESGGGLVQAGGSLRLSCAASGSIFGYYGMGWYRQAPGKERELVAAISYRGGYTYYADSVKGRFTISRDNAKNTVSLQMNSLKPEDTAVYYCNAGGRRRIFAHSSTGDYWGQGTQVTVSS | high polyreactivity |
| QVQLVESGGGLVQAGGSLRLSCAASGSTFVYNAMGWYRQAPGKERELVAAISRGGGITYYADSVKGRFTISRDNAKNTVYLQMNSLKPEDTAVYYCQYLSRGLNTYRSSQGDDDYWGQGTQVTVSS | high polyreactivity |
| QVQLVESGGGLVQAGGSLRLSCAASGIIFQYYAMGWYRQAPGKERELVAAISWSGGSTYYADSVKGRFTISRDNAKNTVYLQMNRLKPEDTAVYYCAARSRSYWPYEGDYWGQGTQVTVSS | low polyreactivity |
| QVQLVESGGGLVQAGGSLRLSCAASGSTFFYYAMGWYRQAPGKERELVAAISGNGGSTYYADSVKGRFTISRDNAKNTVYLQMNSLKPEDPAVYYCAAVSSWDEYYYWGQGTQVTVSS | high polyreactivity |
| QVQLVESGGGLVQAGGSLRLSCAASGNIFVRYTMGWYRQAPGTERELVARITSGGSTYYADSVKGRFTISRDNAKNTVYLQMNSLKPEDTAVYYCAAAIGTRLYSYYYWGQGTQVTVSS | high polyreactivity |
| QVQLVESGGGLVQSGGSLRLSCAASGSIFSYYAMGWYRQAPGKEREFVAPHSRSGGSTYYADSVKGRFTISRDNGKNTVYLQMKSLKPEDTAVYYCNAYSYSDAGDDGDYWGQGTQVTVSS | low polyreactivity |
| QFHLVESCGGLVQAGGSLRLSCAASGIIFSTYFMGWYIQAPGKERELVAAISSRGFSTYYADSVKGRFTISRDNAKKTVYLQMNSLIPEDTAVYYCAARYYYSRSRLYYYWGQGTQVTVSS | high polyreactivity |

| Sequence | polyreactivity (PSR sort gate) |
| --- | --- |
| QVQLVESGGGLVQAGGSLRLSFAASGRTFTYNAMGVYRQAPGKERELVAAMTYRGGSTYYADSVKGRFTISRDNAKNTVYLQMNSLKPEDTAVYYCAARVSYYRYNTPHYYYWGQGTQVTVSS | high polyreactivity |
| QLQLVESGGGLVQAGGSLRLSCAASGRTFDSYAMGWYRQPPGKERELVAAIYADSVKGRFTISRDIAKNTVYLQMYSLTPEDSAVYYCAAETYSGQTYLGEYDYWGQGTQVTVSS | low polyreactivity |
| QVQLVESGGGLVQAGGSLRLSCAASGRIFYVYTMGWYRQARGKERELVAAISWSGGSTHYADSVKGRFTISRDNAKNTVYLQMNSLKPEDTAVYYCNKGVLSRVAFEYWGQGTQVTVSS | low polyreactivity |
| QVQLVESGGGLVQAGGSLRLSCAASGRIFPRNTMGWYRQAPGKERELVAAISTRGGSTYYADSVKGRSTISRDNAKNNVYLQMNSLKPEDTAVYYCAAGRRFPAIYSTGNYWGQGTQVTVSS | high polyreactivity |
| QVQLVESGGGLVQAGGSLRLSCAASGRIFPYYVMGWYRQAPGKERELVAAISRSGSSTYYADSVKGRFTITRDNAKNTVYLQMNSLKPEDTAVYYCAADYNWSPYYTRGDYWGQGTQVTVSS | high polyreactivity |
| QGQLVESGGGLVQAGGSLRLSCAASGFTFDYYAMGWYRQATGKEREFVAAISSRGDDTYYADSVKGRFTISRDNAKNTVYLQMNSLKPEDTAVYYCAALDPWKPEYDYWGQGTQVTLSS | high polyreactivity |
| QVQLVESGGGLVQAGGSLRLSCAASGSTFRYYAMGWYRHAPGKDRELVAAISGSGGRTYYADSVKGRFTISRDNAKNTVYLQMNSLKPEDTAVYYCNTRGRRTDYDYWGQGTQVTVSS | high polyreactivity |
| QVQLVESGGGLVQAGGSLRLSCAASGSIFRNYAMGWSRPATGKERELVASIRYSGGRTNYADSVKGRFTISRDNAKNTVYLQMNSLKPEDTAVYYCAADPGYGWQRAYYYWGQGTQVTVSS | high polyreactivity |
| QVQLVESGGGLVQAGRSLRLTCAASGIIFIGNAMGWYRQATGKERELVAAISRRGGRTYYADSVKGRFTISRDNAKNTVYLQMFSLKPEDTAVYSCNAEITVNDDDYWGQGTQVTVSS | high polyreactivity |
| QVQLVESGGGLVQAGGSLRLSCAASGRTFGYYDMGWYRQAPGKGRELVAAITYSGGNTYYADSVKGRFTISRDNAKITVYLQMNSLKPEDTAVYSCAARSSFFPSYSRYDYWGQGTQVTVSS | high polyreactivity |
| QVQLVESGGGLVQAGGSLRISCAASGFIFKVYAMGWYRQAPGKERELVAAITSSGGSTYYADSVKGRFTISRDNAKNTVYLQMNSLIPEDTAVYYCAAQFPGVYYYIYDYWGQGTQVTVSS | high polyreactivity |
| QVQLVESGGGLVQEGGSLRLSCAASGITFGRYAMGWYRQAPGKERELVAAITTRGGSTYYADSVKGRFTISRDNAKNTVYLQMNSLKPEDTAVYYCAARVPGVSVKNDYCGQGTQVTVSS | high polyreactivity |
| QVQLEDSGGGLVQAGGSLRLICAASGSIFGSYAMGWYRHAPGKERELVAAINSGGSTNYADSVKGRFTISRDNAKNTVYLQMNSLKPEDTAVYYCAARLYSNEYRYDYWGQGTQVTVSS | high polyreactivity |
| QVQLVESGGGLVQAGGSLRLSCAASGITFGGYAMGWYRKARGKERELVAAISWRGGRTYYADSVKGRFTISRDNAKNTVYIQMNSLKPDDTAVYYCAVGGTVYSTESDYWGQGTQVTVSS | high polyreactivity |
| HVQLVESGGGLVQAGGSLRLSCAASGSIFDDYAMGWYRQAPGKERELVAAISSSGTSTYYADSVKGRFTISRDNAKNTVYLQMNSLKPEDTAVYYCAARSAILKSGYLMDYWGQGTQVTVSS | low polyreactivity |
| QVQLVESGGGLVQAGGSLRLSCAASGSIFEVYAMGWYRQAPVKERELVAAIDYSDGTTYYADSVKGRFTISRDNAKNTVYFQMNSLKPEDTAVYYCAADFPGQHYDYWGQGTQVTVSS | low polyreactivity |
| QVQHVESGGGLVQAGGSLRLSCAASGQIYNQNAMGWYRQAPGKERELVAAISYRGGSTYYADSVKGRFTISRDNAKNTVYLQMNSLKPEDTADYYCAAARSGSGGKQFDHGFNYWGQGTQVTVSS | high polyreactivity |
| QVQLVESGGGLVQAGGSLRLSCAASGFIFEPYAMGWYRQAPGTERELVAAISATDDSTYYADSVKGRFTISRDNAKNTVYLQMNSLKPEDTAVYYCNATYYIIALPYDYWGQGTQVTVSS | low polyreactivity |
| QVQLVESGGGLFQAGGSLRLSCAASGIIFAVYDMGWYRQAPGKERELVAAISWSGGSTYYADSVKGRFTISRDNAKNTVYLQMNSLKPEDTAVYYCNRVRYSRLGDYWGQGSQVTVSS | high polyreactivity |
| QVQLVESGGGLVQAGGSLRLSCAASGSILGPYAMGWYRQAPGKERELVAGISGSGTRTYYADSVKGRFTISRDNAKNTVYLQMNSLKPEDPAVYYCAARYYSSWIRYPTYDYWGQGTQVTVSS | high polyreactivity |
| QVQLVESGGGLVQAGGSLRLSCAASGSISDYYAMGWYRQAPGKERELVAAISWDGGSTYYADTVKGRFTISRDNAKNTVYLQMNSLKPEDTAVYYCNAGSGASVGNHILYDYWGQGTQVTVSS | low polyreactivity |
